The values below are quoted from earlier work in publication PMC8886532.

The data set concerns the target kinetochore receptor (KNL1) (Homo sapiens) (UniProt Q8NG31).
Sequence of UniProt Q8NG31 (Q8NG31 whole entry): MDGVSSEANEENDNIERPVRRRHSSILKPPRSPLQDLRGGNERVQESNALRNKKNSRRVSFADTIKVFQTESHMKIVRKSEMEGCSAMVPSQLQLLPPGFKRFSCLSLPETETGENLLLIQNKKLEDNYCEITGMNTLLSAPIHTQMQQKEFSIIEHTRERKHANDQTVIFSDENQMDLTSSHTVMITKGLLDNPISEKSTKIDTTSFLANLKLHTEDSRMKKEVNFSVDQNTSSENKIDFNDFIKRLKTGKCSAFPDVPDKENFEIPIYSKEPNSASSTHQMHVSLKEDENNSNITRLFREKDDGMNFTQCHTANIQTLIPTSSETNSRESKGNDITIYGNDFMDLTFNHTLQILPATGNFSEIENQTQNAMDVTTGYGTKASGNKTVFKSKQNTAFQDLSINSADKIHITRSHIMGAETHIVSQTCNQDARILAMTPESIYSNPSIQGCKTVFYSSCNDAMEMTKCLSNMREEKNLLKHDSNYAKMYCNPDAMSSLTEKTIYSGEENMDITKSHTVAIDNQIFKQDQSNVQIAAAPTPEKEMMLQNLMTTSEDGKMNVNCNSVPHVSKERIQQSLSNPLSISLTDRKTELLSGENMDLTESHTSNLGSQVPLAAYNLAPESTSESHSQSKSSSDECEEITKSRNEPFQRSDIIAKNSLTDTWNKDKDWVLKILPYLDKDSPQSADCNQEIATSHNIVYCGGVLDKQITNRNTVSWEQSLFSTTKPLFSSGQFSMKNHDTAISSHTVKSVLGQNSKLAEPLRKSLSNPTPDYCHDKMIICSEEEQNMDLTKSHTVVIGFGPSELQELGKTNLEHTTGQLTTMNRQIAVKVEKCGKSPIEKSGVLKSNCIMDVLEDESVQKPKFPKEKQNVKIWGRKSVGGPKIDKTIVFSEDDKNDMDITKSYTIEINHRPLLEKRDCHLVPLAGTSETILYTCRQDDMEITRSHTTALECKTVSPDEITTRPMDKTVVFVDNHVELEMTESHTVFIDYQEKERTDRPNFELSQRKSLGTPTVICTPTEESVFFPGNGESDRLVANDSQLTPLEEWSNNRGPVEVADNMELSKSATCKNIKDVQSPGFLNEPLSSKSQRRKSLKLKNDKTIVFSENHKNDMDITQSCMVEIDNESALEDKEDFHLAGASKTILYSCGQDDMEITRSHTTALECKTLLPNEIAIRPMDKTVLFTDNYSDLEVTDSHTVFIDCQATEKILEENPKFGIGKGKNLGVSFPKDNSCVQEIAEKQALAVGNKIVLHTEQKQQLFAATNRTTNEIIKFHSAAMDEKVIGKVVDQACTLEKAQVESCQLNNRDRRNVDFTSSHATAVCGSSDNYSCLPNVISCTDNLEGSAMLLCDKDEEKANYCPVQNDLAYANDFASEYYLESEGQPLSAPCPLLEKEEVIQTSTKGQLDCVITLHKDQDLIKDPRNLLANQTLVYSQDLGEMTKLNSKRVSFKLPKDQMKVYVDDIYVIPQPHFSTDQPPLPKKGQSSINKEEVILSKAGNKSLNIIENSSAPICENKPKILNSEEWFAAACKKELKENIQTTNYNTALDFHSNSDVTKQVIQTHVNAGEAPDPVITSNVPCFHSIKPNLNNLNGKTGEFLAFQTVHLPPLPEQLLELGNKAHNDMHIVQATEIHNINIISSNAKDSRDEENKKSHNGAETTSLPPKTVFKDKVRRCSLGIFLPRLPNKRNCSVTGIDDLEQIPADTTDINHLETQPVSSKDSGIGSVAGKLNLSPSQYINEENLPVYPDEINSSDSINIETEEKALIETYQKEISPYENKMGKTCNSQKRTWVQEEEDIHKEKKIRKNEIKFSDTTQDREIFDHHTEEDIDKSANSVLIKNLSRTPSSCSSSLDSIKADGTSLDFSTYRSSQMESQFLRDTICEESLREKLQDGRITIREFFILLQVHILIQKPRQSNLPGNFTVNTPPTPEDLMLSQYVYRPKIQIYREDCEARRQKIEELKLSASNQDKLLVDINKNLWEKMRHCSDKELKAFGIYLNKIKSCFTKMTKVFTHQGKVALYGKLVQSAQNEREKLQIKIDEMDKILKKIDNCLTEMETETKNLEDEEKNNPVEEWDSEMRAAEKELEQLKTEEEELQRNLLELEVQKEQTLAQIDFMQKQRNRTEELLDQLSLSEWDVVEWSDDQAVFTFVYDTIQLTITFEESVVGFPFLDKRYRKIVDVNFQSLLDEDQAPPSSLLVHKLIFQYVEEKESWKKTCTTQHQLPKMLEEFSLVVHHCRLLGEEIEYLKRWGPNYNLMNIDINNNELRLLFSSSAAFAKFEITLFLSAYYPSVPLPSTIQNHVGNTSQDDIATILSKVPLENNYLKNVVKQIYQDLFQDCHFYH

As usually defined, the Kd is the concentration at which binding is half-saturated. Consider BUB1/BUB3 complex (from UniProt O43683), for which the dissociation constant (Kd) is 100 nM.
